The series is described as follows: Solubility and stability of the N-TRADD NMR sample. The format is physicochemical. The source says:
Cloning and site directed mutagenesis: The DNA sequence coding for the first 169 amino acids from N-TRADD was cloned in pRSETB (Invitrogen) after amplification by PCR. The primer at the 5′ end introduces an NdeI site upstream from the initiation site, and the primer at the 3′ end introduces a His tag after aa169. The sequence was confirmed by sequencing analysis. Single point mutations were introduced using Chameleon double-stranded site directed mutagenesis (Stratagene). The C-TRAF2 sequence (residues 262 to 501 of human TRAF2) was amplified by PCR using a 5′ end primer flanking with an XhoI and NdeI site, which introduces a Met before residue 262, and a 3′ end primer introducing 6×His before a stop codon followed by a NcoI site. The C-TRAF2 sequence was cloned into pAcSG2 (Pharmingen) by XhoI and NcoI sites for baculovirus expression. Protein expression and purification: The polypeptide for N-TRADD (1-169) was overexpressed in BL-21 E. coli. [U-^15N] or [U-^13C, U-^15N]. N-TRADD was purified from cells grown at 25° C. on minimal medium containing 2 g/L […] or [^15N]ammonium sulfate and 2 g/L [U-^13C]glucose. […]
Structure Determination: The structure of N-TRADD was determined from 2302 NMR derived restraints obtained using uniformly ^15N and ^15N/^13C labeled protein, with double and triple resonance NMR experiments. […]

A word on the solubility: it is how much of the substance goes into solution per volume. A high value points to much dissolved substance.

B1: N-TRADD: N-terminal domain (amino acid residues 1-169, SEQ ID NO:1) of human TNFR-1 associated death domain protein (protein)
chain: MAAGQNGHEWVGSAYLFVESSLDKVVLSDAYAHPQQKVAVYRALQAALAESGGSPDVLQMLKIHRSDPQLIVQLRFCGRQPCGRFLRAYREGALRAALQRSLAAALAQHSVPLQLELRAGAERLDALLADEERCLSCILAQQPDRLRDEELAELEDALRNLKCGSGAR
Take B1: the solubility (dithiothreitol (20 mM) required to prevent aggregation) is approximately 1000 µM. Also, the sample stability (~1 mM, 20 mM dithiothreitol) is listed as 6-8 weeks.
